From patent US9518103B2, “Optogenetic probes for measuring membrane potential” (President and Fellows of Harvard College, priority 2014, dated 2016)
Read-outs that look alike come from different tables or passages of the source.

Experiments:
[1] = earlier work, cited from earlier work
HEK293T cells = experiment: Simultaneous whole-cell patch clamp electrophysiology and fluorescence in HEK cells (brightness, voltage sensitivity, speed); assay type: cell-based; conditions: for voltage sensitivity (ΔF/F per 100 mV): HEK cells
Method: Simultaneous electrophysiology and fluorescence in HEK cells: HEK293T cells (ATCC CRL-11268) were cultured and transfected following standard protocols.^10 Briefly, HEK-293 cells were grown at 37° C., 5% CO2, in DMEM supplemented with 10% FBS and penicillin-streptomycin. Plasmids were transfected using Transit 293T (Mirus) following the manufacturer's instructions, and assayed 48 hours later. The day before recording, cells were re-plated onto glass-bottom dishes (MatTek) at a density of ˜10,000 cells/cm^2.
Cells were supplemented with retinal by diluting stock retinal solutions (40 mM, DMSO) in growth medium to a final concentration of 5 μM, and then returning the cells to the incubator for 0.5-1 hour. All imaging and electrophysiology were performed in Tyrode buffer (containing, in mM: 125 NaCl, 2.5 KCl, 3 CaCl2, 1 MgCl2, 10 HEPES, 30 glucose pH 7.3, and adjusted to 305-310 mOsm with sucrose). A gap junction blocker, 2-aminoethoxydiphenyl borate (50 μM, Sigma), was added to eliminate electrical coupling between cells.
Filamented glass micropipettes (WPI) were pulled to a tip resistance of 5-10 MΩ, and filled with internal solution containing 125 mM potassium gluconate, 8 mM NaCl, 0.6 mM MgCl2, 0.1 mM CaCl2, 1 mM EGTA, 10 mM HEPES, 4 mM Mg-ATP, 0.4 mM Na-GTP (pH 7.3); adjusted to 295 mOsm with sucrose. Pipettes were positioned with a Sutter MP285 manipulator. Whole-cell, voltage and current clamp recordings were acquired using an […] 700B amplifier (Molecular Devices), filtered at 2 kHz with the internal Bessel filter and digitized with a National Instruments PCIE-6323 acquisition board at 5-10 kHz. Data was only acquired from HEK cells having reversal potentials between −10 and −40 mV, access resistance<25 MΩ and membrane resistance>0.5 GΩ.
Simultaneous whole-cell patch clamp recordings and fluorescence recordings were acquired on a home-built, inverted epifluorescence microscope, described previously^10 and described below in “Apparatus”. For step response measurements, voltage clamp electronics were compensated 90-95%. We examined variants of QuasAr1 with mutations at position 95 (Asn, Cys, Gin, His and Tyr) and position 106 (Arg, Asp, Asn, Cys, Glu, His, Lys and Tyr). These experiments confirmed that histidine at position 106 provided undetectable photocurrent, and the best combination of improved voltage sensitivity, and fast kinetics.
We compared the fluorescence, voltage sensitivity, and speed of the QuasArs to wild-type Arch in HEK cells, using epifluorescence microscopy and whole-cell patch clamp electrophysiology. Under low intensity illumination (640 nm, 500 mW/cm^2), QuasAr1 was 15-fold brighter than wild-type Arch, and QuasAr2 was 3.3-fold brighter (FIG. 1B; Methods).

[2] = Quantum yield of solubilized protein (Cy5 reference); assay type: physicochemical; conditions: excitation at 600 nm
Method: Solubilization and spectroscopic characterization of QuasAr1 and QuasAr: E. coli expressing QuasAr1 and QuasAr2 were grown in 12 mL LB medium with 200 μg/ml ampicillin overnight. The next day, 12 mL of liquid LB medium containing 50 μM retinal, 200 μg/ml ampicillin and 0.1% arabinose was added into the overnight culture, followed by additional incubation at 37° C. for 4 hours. The cell pellets were collected by centrifugation and lysed by suspension in B-PER solution (Pierce). The cytoplasmic fraction was discarded after centrifugation and the colored insoluble fraction was resuspended in phosphate buffered saline (PBS) containing 1.5% n-dodecyl-β-D-maltopyranoside (Affymetrix, Inc.). The suspension was homogenized by an ultrasonic homogenizer and centrifuged (17,000 g for 15 mins, 4° C.). The solubilized protein in the supernatant was used for in vitro spectroscopic characterization.
Absorption spectra were recorded on a DU-800 UV-visible spectrophotometer (Beckman) and fluorescence spectra were recorded on a Safire2 plate reader (Tecan). Cy5 carboxylic acid (Cyandye) was used as the reference for quantum yield measurement. Quantum yield measurements were performed on a series of dilutions of each protein solution and standard, with absorbance values ranging from 0.01 to 0.05 at 600 nm. The fluorescence emission spectra of each dilution were recorded with excitation at 600 nm and the total fluorescence intensities obtained by integration. Integrated fluorescence intensity vs. absorbance was plotted for each protein and each standard. Quantum yields, Φ, were determined from the slopes (S) of each line using the equation: Φprotein=Φstandard×(Sprotein/Sstandard).

[3] = system: cultured rat hippocampal neurons; experiment: Photocurrent in cultured rat hippocampal neurons; assay type: cell-based
Method: FIGS. 4A-4B show the photophysics of QuasArs in mammalian cells. […] Steady state photocurrents were calculated by averaging the current over the last 0.25 seconds of light exposure and subtracting the holding current (cells held at −65 mV) in the dark. These currents hyperpolarized cells by 25±4 mV and 19±3 mV, respectively. […] The double mutants had mutations at the locations of the proton acceptor (Asp95) and proton donor (Asp106) to the Schiff base. QuasAr1 includes mutations D95H, D106H, and QuasAr2 includes mutations D95Q, D106H. The three additional backbone mutations in the QuasArs (P60S, T80S, F161V) increased brightness relative to the double mutants, Fluorescence of each Arch mutant was measured with excitation at 640 nm and emission from 660-760 nm. To control for variation in expression level, fluorescence was normalized by eGFP fluorescence (λexc=488 nm, λem=510−550 nm). Error bars represent s.e.m. for measurements on n=5-10 cells.
Measurements were performed on primary cultures at 13-15 DIV. Experiments were conducted in Tyrode's solution containing 125 mM NaCl, 2.5 mM KCl, 3 mM CaCl2, 1 mM MgCl2, 10 mM HEPES, 30 mM glucose (pH 7.3) and adjusted to 305-310 mOsm with sucrose. Prior to imaging, neurons were incubated with 5 μM all-trans retinal for 30 minutes and then washed with Tyrode's solution.
Synaptic blockers were added to the imaging medium for measurements of single-cell electrophysiology (Arch photocurrents, and single-cell excitability). The blockers comprised NBQX (10 μM, Tocris), D(−)-2-amino-5-phosphonovaleric acid (APS; […]), and gabazine (SR-95531, 20 μM, Tocris). For measurements of channel rhodopsin photocurrents in neurons, TTX (1 μM, Tocris) was included along with the synaptic blockers to prevent recruitment of voltage gated sodium channels. […] Recordings were terminated if membrane resistance changed by >10%. Experiments were performed at 23° C. under ambient atmosphere unless otherwise noted.

[4] = blue illumination (488 nm, 500 mW/cm^2)
[5] = red illumination (640 nm, 300 W/cm^2)

B1: Arch D95N: Archaerhodopsin 3 D95N mutant, non-pumping voltage indicator of US 2013/0224756 (protein)
chain: MDPIALQAGYDLLGDGRPETLWLGIGTLLMLIGTFYFLVRGWGVTDKDAREYYAVTILVPGIASAAYLSMFFGIGLTEVTVGGEMLDIYYARYANWLFTTPLLLLDLALLAKVDRVTIGTLVGVDALMIVTGLIGALSHTAIARYSWWLFSTICMIVVLYFLATSLRSAAKERGPEVASTFNTLTALVLVLWTAYPILWIIGTEGAGVVGLGIETLLFMVLDVTAKVGFGFILLRSRAILGDTEAPEPSAGADVSAAD
[1]
  step response / response time: 41 ms
[1]; listed as Arch 3 D95N
  step response / response time: 40 ms
HEK293T cells
  voltage sensitivity (ΔF/F per 100 mV): 60%
[2]
  Quantum yield: 4 × 10^−4
  Quantum yield relative to Arch D95N: 1

B2: Arch D95H/D106H/F161V: Arch triple mutant D95H, D106H, F161V (protein)
chain: MDPIALQAGYDLLGDGRPETLWLGIGTLLMLIGTFYFLVRGWGVTDKDAREYYAVTILVPGIASAAYLSMFFGIGLTEVTVGGEMLDIYYARYAHWLFTTPLLLLHLALLAKVDRVTIGTLVGVDALMIVTGLIGALSHTAIARYSWWLFSTICMIVVLYVLATSLRSAAKERGPEVASTFNTLTALVLVLWTAYPILWIIGTEGAGVVGLGIETLLFMVLDVTAKVGFGFILLRSRAILGDTEAPEPSAGADVSAAD
[2]
  Quantum yield: 5 × 10^−3
  Quantum yield relative to Arch D95N: 13

B3: Arch(WT): wild-type Archaerhodopsin 3, light-driven proton pump from Halobacterium sodomense (protein)
chain: MDPIALQAGYDLLGDGRPETLWLGIGTLLMLIGTFYFLVRGWGVTDKDAREYYAVTILVPGIASAAYLSMFFGIGLTEVTVGGEMLDIYYARYADWLFTTPLLLLDLALLAKVDRVTIGTLVGVDALMIVTGLIGALSHTAIARYSWWLFSTICMIVVLYFLATSLRSAAKERGPEVASTFNTLTALVLVLWTAYPILWIIGTEGAGVVGLGIETLLFMVLDVTAKVGFGFILLRSRAILGDTEAPEPSAGADVSAAD
modifications: Halobacterium sodomense
notes: wild-type Archaerhodopsin 3, light-driven proton pump from Halobacterium sodomense
[3]; [4]
  hyperpolarization of cells by photocurrent: 19±3 mV
  photocurrent: 140±25 pA
[3]; [5]
  hyperpolarization of cells by photocurrent: 25±4 mV
  photocurrent: 220±30 pA
[1]
  step response / response time: 0.6 ms
HEK293T cells
  voltage sensitivity compared with QuasAr2: three-fold less than the sensitivity of QuasAr2
  voltage sensitivity (ΔF/F per 100 mV): 40%
HEK293T cells; 23° C.
  τdown (+30 mV to −70 mV) % τ1: 67%
  τdown (+30 mV to −70 mV) τ1: 0.25 ms
  τdown (+30 mV to −70 mV) τ2: 1.9 ms
  τup (−70 mV to +30 mV) τ1: 0.6 ms
HEK293T cells; 23° C., HEK293 cells
  Brightness (λexc = 640 nm) 0.7 W/cm^2: 1
  Brightness (λexc = 640 nm) 800 W/cm^2: 4.0
  Sensitivity (ΔF/F per 100 mV): 40%
[2]
  Quantum yield: *Due to the low light intensities used to determine QYs, fluorescence from Arch was not detected above baseline.

B4: Arch D95H/D106H/P60S: Arch triple mutant D95H, D106H, P60S (protein)
chain: MDPIALQAGYDLLGDGRPETLWLGIGTLLMLIGTFYFLVRGWGVTDKDAREYYAVTILVSGIASAAYLSMFFGIGLTEVTVGGEMLDIYYARYAHWLFTTPLLLLHLALLAKVDRVTIGTLVGVDALMIVTGLIGALSHTAIARYSWWLFSTICMIVVLYFLATSLRSAAKERGPEVASTFNTLTALVLVLWTAYPILWIIGTEGAGVVGLGIETLLFMVLDVTAKVGFGFILLRSRAILGDTEAPEPSAGADVSAAD
[2]
  Quantum yield: 5 × 10^−3
  Quantum yield relative to Arch D95N: 12

B5: Arch D95H/D106H: Arch double mutant D95H, D106H (protein)
chain: MDPIALQAGYDLLGDGRPETLWLGIGTLLMLIGTFYFLVRGWGVTDKDAREYYAVTILVPGIASAAYLSMFFGIGLTEVTVGGEMLDIYYARYAHWLFTTPLLLLHLALLAKVDRVTIGTLVGVDALMIVTGLIGALSHTAIARYSWWLFSTICMIVVLYFLATSLRSAAKERGPEVASTFNTLTALVLVLWTAYPILWIIGTEGAGVVGLGIETLLFMVLDVTAKVGFGFILLRSRAILGDTEAPEPSAGADVSAAD
HEK293T cells
  voltage sensitivity compared with QuasAr2: three-fold less than the sensitivity of QuasAr2
[2]
  Quantum yield: 2 × 10^−3
  Quantum yield relative to Arch D95N: 4.2
